Reference: patent US20070036789A1 (NATIONAL CANCER CENTER, published 2007)

T1: phage containing the peptide of SEQ ID NO: 32
T1 construct: The phage coat fusion is not described
T1 peptide: HHPHFKPVSNSR

T2: phage containing the peptide of SEQ ID NO: 33
T2 construct: The phage coat fusion is not described
T2 peptide: KSLSRHDHIHHH


Tests used:
[1] = molecular target: T1, phage containing the peptide of SEQ ID …; assay: phage peptide library panned on the coated Fab, clones selected by EIA
Description: (§1) A 96-well plate (costar No. 3690) was coated with anti-HGF H61 Fab or anti-HGF H68 Fab dissolved in 25 μl of TBS solution at a concentration of 10 μg/ml per well. PHD peptide library (phage display of combinatorial peptide library) (new England Biolob.) was added to the well plate, and then, the well plate was kept for 2 hrs at room temperature. The well plate was washed with 0.5% (v/v) Tween 20 in PBS and eluted with 0.1 M HCl-glycine (pH 2.2). The washing steps were increased from 5 times in the first round to 10 times in the second round and 15 times in the subsequent rounds. Typically seven rounds of panning were carried out. After the last round of panning, the phage clones containing anti-HGF H61 Fab or anti-HGF H68 Fab were selected by EIA using anti-HGF H61 Fab or anti-HGF H68 Fab-coated ELISA plate and horseradish peroxidase-conjugated anti-M13 phage goat monoclonal antibody (Roche). The selected clones were subjected to nucleotide sequencing and the amino acid sequences were determined from the analyzed nucleotide sequences.
(§2) Nucleotide sequencing was performed according to the dye-labeled primer sequencing method (Chung et al., supra) using a sequencing primer of SEQ ID NO: 31. As a result, peptides encoding anti-HGF H61 and H68 Fabs deduced from the analyzed nucleotide sequences had the amino acid sequences of SEQ ID NOs: 32 and 33, respectively.

c-Met = molecular target: T3, c-Met (UniProt P08581 25-932, limits assumed); assay: SPR, c-Met on CM5 chip, Fab injected alone
T3 construct: also called HGF receptor
Description: To ascertain the fact that anti-HGF H68 Fab can inhibit the binding of HGF to c-Met in real time, c-Met was coupled to CM5 sensor chip through an amine coupling method. Thereafter, HGF alone was injected at a concentration of 50 nM, and premixed with anti-HGF H68 Fab of 5 different concentrations (50 nM, 250 nM, 500 nM, 1 μM and 1.5 μM) and soluble c-Met of 5 different concentrations (50 nM, 100 nM, 200 nM, 400 nM, 600 nM), respectively. Binding interaction was allowed to proceed in PBS buffer containing 0.005% surfactant P20 at a flow rate of 30 μl/min at 25° C. The surface was regenerated with 1 M NaCl/50 mM NaOH.
There was no binding of HGF in case when anti-HGF H68 Fab alone was injected.

[2] = molecular target: T2, phage containing the peptide of SEQ ID …; assay: phage peptide library panned on the coated Fab, clones selected by EIA
Description: as §1, §2

T3 sequence (P08581 25-932 limits assumed): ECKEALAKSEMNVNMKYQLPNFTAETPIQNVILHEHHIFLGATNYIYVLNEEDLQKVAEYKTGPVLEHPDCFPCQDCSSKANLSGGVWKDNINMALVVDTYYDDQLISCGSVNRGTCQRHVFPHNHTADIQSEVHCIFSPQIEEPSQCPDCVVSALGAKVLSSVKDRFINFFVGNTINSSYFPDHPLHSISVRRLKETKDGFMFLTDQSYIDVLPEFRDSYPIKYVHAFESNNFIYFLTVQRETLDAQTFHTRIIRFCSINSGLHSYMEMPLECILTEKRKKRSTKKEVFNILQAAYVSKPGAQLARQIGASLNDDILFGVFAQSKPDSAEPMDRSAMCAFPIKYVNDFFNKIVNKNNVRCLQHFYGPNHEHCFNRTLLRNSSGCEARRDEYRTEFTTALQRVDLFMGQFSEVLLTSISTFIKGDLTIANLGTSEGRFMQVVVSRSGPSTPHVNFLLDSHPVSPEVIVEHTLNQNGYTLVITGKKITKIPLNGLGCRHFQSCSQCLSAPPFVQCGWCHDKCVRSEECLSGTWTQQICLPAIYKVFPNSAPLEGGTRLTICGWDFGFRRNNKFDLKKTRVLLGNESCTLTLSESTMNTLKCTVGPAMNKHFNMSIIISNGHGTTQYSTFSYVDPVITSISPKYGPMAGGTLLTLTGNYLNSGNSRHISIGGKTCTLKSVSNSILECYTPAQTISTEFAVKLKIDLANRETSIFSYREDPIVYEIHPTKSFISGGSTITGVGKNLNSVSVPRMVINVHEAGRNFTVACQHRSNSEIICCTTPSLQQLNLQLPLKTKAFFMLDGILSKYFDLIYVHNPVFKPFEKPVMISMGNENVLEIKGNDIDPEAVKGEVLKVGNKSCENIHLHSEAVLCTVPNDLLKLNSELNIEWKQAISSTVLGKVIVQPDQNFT

Row | Binder | binding result [1] | binding result (c-Met) | binding result [2]
1 | anti-HGF H61 Fab (Fab, V domains shown, Rabbit/human chimeric Fab: rabbit VH and VL joined to human CH1 and Ckappa from pComb3X; purified through its HA tag; also called clone 61; clone 61 Fab) VH: QEQLMESGGRLVNPGESLTLTCKASGFTFSSYYMSWVRQAPGKGLEWIGYIGTSSGTTYYANSVKGRFTISSDNAQNTVFLRMTSLTDSDTATYFCARGLGRINLWGPGTLVTVSS VL: ELVLTQTPSSMSAAVGGTVTINCQASQSVSNYLAWYQQKPGQPPKLLIYRASTLASGVPSRFSGSGSGTEFTLTISGMKAEDAATYYCQSGYYSAGATFGGGTNVEIKR | binds | – | –
2 | anti-HGF H68 Fab (Fab, V domains shown, Rabbit/human chimeric Fab: rabbit VH and VL joined to human CH1 and Ckappa from pComb3X; purified through its HA tag; also called clone 68; clone 68 antibody) VH: QQQLVESGGRLVNPGESLTLTCKASGFTFSTYYMSWVRQAPGKGLEWIGYIGTSSGTTYYANSVKGRFTISSDNAQNTVFLQMTSLTDSDTATYFCARGLGRINLWGPGTLVTVSS VL: ELDLTQTPSSVSAAVGGTVTINCQASQSVSNLLAWYQQKPGQPPKLLIYGASNLESGVPSRFRGSGSGTEFTLTISGMKAEDAATYYCQSGYYSAGATFGAGTNVEIKR | binds | no binding | binds
